# Results from doi:10.1101/521658v1.
# Columns and labels:
# [1] = substrate: Nc1ncnc2c1ncn2[C@@H]1O[C@H](COP(=O)(O)OP(=O)(O)OP(=O)(O)O)[C@@H](O)[C@H]1O; test: purified protein, by the assay type; details: pH 7.8
# [2] = substrate: NC(=O)c1ccc[n+]([C@@H]2O[C@H](COP(=O)(O)OP(=O)(O)OC[C@H]3O[C@@H](n4cnc5c(N)ncnc54)[C@H](O)[C@@H]3O)[C@@H](O)[C@H]2O)c1; test: purified protein, by the assay type; details: pH 7.8
protein,measurement,setting,value
6HIS-Δ38NADKc-1 (with AtCaM1/Ca^2+) (Arabidopsis thaliana) (protein) AGELLLRRRKLDQGASMGYKDVKIAPLIERKDSGRRSNLERFSHYVARQLGFEDPNEYPQLCKLANGYLLKTKGYDENVDEYLENEAERDSLYVHLLEEFDRCILTYFSFNWTQSSNLISQALSDESDQKVPKLKDFVMAATRKQRFERVTKDLKVKRVISTLVEEMRVIGSGSSEPHCTEVMSPVAHNKRSPVLLLMGGGMGAGKSTVLKDIFLESFWSEAQADAVVIEADAFKETDVIYRALSSRGHHDDMLQTAELVHQSSTDAASSLLVTALNDGRDVIMDGTLSWEPFVEQMIEMARNVHKQKYRMGEGYKVSEEGTITEKYWEEEEEETKENGKQQNLKPYRIELVGVVCDAYLAVARGIRRALMVKRAVRVKPQLNSHKRFANAFPKYCELVDNARLYCTNAVGGPPRLIAWKDGNSKLLVDPEDIDCLKRVSSLNPDAESIYELYPDPSQLSKPGSVWNDVVLVPSRPKVQKELSDAIRRIEKAQPKN,Km,[1],203(±30) uM
same,kcat,[1],41 ± 2 s⁻¹
same,kcat/Km,[1],200000 M⁻¹ s⁻¹
same,Km,[2],147 (±17) uM
same,kcat,[2],42 ± 2 s⁻¹
same,kcat/Km,[2],280000 M⁻¹ s⁻¹
